According to paper PMC4773404, “Activation of a synapse weakening pathway by human Val66 but not Met66 pro-brain-derived neurotrophic factor (proBDNF)” (Pharmacological Research, 2016):

Tests used:
Assay in all cases: SPR; Biacore T200; receptor domains amine-coupled to CM5-S Series chips; analytes 0-20 nM flowed over; 10 mM HEPES, 150 mM NaCl, 3 mM EDTA, 0.05% surfactant P20, pH 7.4; double-referenced; 1:1 Langmuir fit
Settings in all cases: both partners purified
[1] = biological target: T1, human proBDNF Val66, furin cleavage-resistant (FCR) (human)
T1 construct: furin site 127RR128 changed to AA; non-glycosylated; Cloned in pET 24a(+); also called proBDNF FCR Val66
T1 sequence (P23560 whole entry, looked up): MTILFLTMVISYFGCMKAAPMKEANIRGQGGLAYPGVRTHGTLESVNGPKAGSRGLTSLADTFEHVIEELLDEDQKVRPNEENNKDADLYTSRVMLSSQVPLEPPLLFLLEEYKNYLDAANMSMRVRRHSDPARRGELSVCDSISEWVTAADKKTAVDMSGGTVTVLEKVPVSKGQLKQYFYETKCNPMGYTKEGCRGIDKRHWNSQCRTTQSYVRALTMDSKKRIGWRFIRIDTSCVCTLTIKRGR

[2] = biological target: T2, human proBDNF Met66, furin cleavage-resistant (FCR) (human)
T2 construct: furin site 127RR128 changed to AA; non-glycosylated; Cloned in pET 24a(+); also called proBDNF FCR Met66
T2 sequence (P23560 whole entry, looked up): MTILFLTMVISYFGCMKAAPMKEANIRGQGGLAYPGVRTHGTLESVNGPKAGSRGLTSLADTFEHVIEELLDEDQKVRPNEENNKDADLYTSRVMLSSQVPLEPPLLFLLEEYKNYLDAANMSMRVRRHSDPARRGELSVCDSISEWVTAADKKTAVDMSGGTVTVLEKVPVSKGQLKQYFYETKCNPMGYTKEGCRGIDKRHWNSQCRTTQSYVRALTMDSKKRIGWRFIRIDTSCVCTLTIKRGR

[3] = biological target: T3, brain-derived neurotrophic factor (BDNF)
T3 construct: mature BDNF (~14 kDa), the cut product of proBDNF; used as control analyte in SPR; also called mature BDNF
T3 sequence (P23560 19-247, species assumed, looked up): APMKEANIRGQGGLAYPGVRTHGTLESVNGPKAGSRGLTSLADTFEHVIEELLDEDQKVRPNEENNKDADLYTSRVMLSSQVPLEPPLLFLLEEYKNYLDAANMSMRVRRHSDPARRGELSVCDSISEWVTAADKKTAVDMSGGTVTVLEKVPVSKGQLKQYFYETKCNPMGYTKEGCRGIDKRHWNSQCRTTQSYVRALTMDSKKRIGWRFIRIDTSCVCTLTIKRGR

B1: TrkB immunoglobulin-like domain 2 (TrkBIg2) (domain or fragment)
chain: APTITFLESPTSDHHWCIPFTVKGNPKPALQWFYNGAILNESKYICTKIHVTNHTEYHGCLQLDNPTHMNNGDYTLIAKNEYGKDEKQISAHFMGWPG
- Kd [1]: 2.32 nM
- koff [1]: 0.00367 s⁻¹
- kon [1]: 1.61e+06 M⁻¹ s⁻¹
- Kd [2]: 2.03 nM
- koff [2]: 0.00392 s⁻¹
- kon [2]: 1.99e+06 M⁻¹ s⁻¹
- Kd [3]: 0.58 nM
- koff [3]: 0.00232 s⁻¹
- kon [3]: 4.57e+06 M⁻¹ s⁻¹
